This is an account of results in article PMC4293345.

Read-outs that look alike come from different tables or passages of the source.

Experiment [1] addresses MBP-tagged NCS-1 (neuronal calcium sensor-1) (UniProt P62166). The experiment is described as follows: pull-down.
For experiment [2] the target is unchanged. Kind of experiment: pull-down. This is another data set of the same source.

Sequence of MBP-tagged NCS-1 (neuronal calcium sensor-1) (P62166 whole entry): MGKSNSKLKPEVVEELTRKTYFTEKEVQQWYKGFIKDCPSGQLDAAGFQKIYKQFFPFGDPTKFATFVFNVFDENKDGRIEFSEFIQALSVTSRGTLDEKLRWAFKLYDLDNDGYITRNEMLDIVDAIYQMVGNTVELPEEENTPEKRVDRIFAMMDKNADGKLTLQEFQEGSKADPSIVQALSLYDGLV

Consider “GST-tagged IM-AA mutant IQ domain of CaV2.1 (from UniProt P54282 1848-1964) (domain or fragment)”, for which the relative binding (ratio of IMAA-GST to NCS-1-MBP) is 0.29 in experiment [1] and 0.24 in experiment [2].
